T1: progesterone receptor (UniProt P06401 1-933, limits assumed)
T1 construct: The assay and the construct are not described; also called a related receptor, the progesterone receptor
T1 sequence (looked up): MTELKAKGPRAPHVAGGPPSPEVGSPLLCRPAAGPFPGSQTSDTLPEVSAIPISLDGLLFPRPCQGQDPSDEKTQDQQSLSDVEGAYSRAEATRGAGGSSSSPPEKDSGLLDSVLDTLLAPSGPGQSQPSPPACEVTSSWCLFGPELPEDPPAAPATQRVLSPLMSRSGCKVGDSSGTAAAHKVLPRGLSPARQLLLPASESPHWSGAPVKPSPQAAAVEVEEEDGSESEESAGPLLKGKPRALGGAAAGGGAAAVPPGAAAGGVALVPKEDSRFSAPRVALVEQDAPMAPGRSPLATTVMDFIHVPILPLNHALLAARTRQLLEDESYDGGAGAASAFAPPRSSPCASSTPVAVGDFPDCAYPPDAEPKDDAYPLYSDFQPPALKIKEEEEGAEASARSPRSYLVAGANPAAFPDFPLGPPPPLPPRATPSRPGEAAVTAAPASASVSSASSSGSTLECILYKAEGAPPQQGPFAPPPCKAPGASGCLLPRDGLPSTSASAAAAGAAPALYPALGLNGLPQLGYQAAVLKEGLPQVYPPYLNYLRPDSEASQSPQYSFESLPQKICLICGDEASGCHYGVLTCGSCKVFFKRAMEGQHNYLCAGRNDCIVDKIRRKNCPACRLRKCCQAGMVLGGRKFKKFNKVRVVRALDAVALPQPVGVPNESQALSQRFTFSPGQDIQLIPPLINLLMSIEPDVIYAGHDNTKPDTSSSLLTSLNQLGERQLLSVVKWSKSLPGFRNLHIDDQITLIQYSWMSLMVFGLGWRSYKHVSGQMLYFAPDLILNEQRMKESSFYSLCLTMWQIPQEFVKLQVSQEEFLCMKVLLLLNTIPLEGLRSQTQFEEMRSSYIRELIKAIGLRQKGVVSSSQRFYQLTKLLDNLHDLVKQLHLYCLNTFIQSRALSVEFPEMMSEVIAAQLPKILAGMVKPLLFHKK

T2: full length androgen receptor (human, UniProt P10275 1-920)
T2 construct: Full length AR expressed inside transfected cells (intracellular, not on the surface); also called AR; full length AR
T2 sequence: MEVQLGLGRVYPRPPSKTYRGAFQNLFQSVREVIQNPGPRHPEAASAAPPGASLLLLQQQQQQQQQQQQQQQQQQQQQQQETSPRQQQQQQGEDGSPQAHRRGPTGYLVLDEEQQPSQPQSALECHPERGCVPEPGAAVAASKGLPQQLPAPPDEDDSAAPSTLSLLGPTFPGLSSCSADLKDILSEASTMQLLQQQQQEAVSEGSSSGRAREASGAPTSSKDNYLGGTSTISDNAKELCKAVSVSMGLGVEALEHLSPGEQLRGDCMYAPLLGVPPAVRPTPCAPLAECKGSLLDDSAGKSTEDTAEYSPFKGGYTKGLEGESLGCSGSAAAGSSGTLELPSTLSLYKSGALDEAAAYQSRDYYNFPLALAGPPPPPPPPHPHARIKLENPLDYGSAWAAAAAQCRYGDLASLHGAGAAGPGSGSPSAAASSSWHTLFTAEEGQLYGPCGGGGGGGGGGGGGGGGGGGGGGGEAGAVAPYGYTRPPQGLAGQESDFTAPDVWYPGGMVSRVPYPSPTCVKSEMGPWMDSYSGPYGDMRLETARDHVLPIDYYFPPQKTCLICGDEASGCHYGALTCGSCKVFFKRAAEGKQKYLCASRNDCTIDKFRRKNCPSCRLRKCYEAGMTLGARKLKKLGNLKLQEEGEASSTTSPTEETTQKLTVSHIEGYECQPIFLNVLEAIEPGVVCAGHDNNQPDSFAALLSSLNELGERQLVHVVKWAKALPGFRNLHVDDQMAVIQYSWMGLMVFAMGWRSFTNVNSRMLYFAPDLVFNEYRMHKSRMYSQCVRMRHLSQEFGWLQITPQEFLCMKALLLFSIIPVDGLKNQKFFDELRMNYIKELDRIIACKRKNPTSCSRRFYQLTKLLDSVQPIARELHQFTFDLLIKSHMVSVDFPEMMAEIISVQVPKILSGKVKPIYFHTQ

B1: SRCdp100: Amino acids 1050-1150 of SRC-1 (peptide)
peptide: MAPNQLRLQLQQRLQGQQQLIHQNRQAILNQFAATAPVGINMRSGMQQQITPQPPLNAQMLAQRQRELYSQQHRQRQLIQQQRAMLMRQQSFGNNLPPSSGL
notes: Expressed in cells from a transfected plasmid; also called SRCdp(P100); SRC derived peptide
B2: SRCdp200: Amino acids 1050-1240 of SRC-1 (peptide)
peptide: MAPNQLRLQLQQRLQGQQQLIHQNRQAILNQFAATAPVGINMRSGMQQQITPQPPLNAQMLAQRQRELYSQQHRQRQLIQQQRAMLMRQQSFGNNLPPSSGLPVQMGNPRLPQGAPQQFPYPPNYGTNPGTPPASTSPFSQLAANPEASLANRNSMVSRGMTGNIGGQFGTGINPQMQQNVFQYPGAGMVPQ
notes: Expressed in cells from a transfected plasmid; also called SRC derived peptide; 200 amino acid fragment

What was measured:
[1] = target: T1, progesterone receptor; test: not described
[2] = target: T2, full length androgen receptor; test: not described

| Binder | binding result [1] | binding result [2] |
| --- | --- | --- |
| B1 | no binding | binds |
| B2 | no binding | binds |

Reference: patent US20130064881A1 (GRADALIS, published 2013)
